Test results from patent publication US20040241689A1 (published 2004).

Target: T1, human plasma fibronectin (human, UniProt P02751 32-2296)
T1 construct: Bought (Sigma); used in solution for ligand blots, coated on microtitre wells, or coupled to Sepharose; also called Fn; human Fn
Assay: ELISA, recombinant protein titrated on immobilized human Fn (100 ng/well), detected with antiserum

T1 sequence (P02751 other isoform, or with tags, fused parts or gaps limits assumed): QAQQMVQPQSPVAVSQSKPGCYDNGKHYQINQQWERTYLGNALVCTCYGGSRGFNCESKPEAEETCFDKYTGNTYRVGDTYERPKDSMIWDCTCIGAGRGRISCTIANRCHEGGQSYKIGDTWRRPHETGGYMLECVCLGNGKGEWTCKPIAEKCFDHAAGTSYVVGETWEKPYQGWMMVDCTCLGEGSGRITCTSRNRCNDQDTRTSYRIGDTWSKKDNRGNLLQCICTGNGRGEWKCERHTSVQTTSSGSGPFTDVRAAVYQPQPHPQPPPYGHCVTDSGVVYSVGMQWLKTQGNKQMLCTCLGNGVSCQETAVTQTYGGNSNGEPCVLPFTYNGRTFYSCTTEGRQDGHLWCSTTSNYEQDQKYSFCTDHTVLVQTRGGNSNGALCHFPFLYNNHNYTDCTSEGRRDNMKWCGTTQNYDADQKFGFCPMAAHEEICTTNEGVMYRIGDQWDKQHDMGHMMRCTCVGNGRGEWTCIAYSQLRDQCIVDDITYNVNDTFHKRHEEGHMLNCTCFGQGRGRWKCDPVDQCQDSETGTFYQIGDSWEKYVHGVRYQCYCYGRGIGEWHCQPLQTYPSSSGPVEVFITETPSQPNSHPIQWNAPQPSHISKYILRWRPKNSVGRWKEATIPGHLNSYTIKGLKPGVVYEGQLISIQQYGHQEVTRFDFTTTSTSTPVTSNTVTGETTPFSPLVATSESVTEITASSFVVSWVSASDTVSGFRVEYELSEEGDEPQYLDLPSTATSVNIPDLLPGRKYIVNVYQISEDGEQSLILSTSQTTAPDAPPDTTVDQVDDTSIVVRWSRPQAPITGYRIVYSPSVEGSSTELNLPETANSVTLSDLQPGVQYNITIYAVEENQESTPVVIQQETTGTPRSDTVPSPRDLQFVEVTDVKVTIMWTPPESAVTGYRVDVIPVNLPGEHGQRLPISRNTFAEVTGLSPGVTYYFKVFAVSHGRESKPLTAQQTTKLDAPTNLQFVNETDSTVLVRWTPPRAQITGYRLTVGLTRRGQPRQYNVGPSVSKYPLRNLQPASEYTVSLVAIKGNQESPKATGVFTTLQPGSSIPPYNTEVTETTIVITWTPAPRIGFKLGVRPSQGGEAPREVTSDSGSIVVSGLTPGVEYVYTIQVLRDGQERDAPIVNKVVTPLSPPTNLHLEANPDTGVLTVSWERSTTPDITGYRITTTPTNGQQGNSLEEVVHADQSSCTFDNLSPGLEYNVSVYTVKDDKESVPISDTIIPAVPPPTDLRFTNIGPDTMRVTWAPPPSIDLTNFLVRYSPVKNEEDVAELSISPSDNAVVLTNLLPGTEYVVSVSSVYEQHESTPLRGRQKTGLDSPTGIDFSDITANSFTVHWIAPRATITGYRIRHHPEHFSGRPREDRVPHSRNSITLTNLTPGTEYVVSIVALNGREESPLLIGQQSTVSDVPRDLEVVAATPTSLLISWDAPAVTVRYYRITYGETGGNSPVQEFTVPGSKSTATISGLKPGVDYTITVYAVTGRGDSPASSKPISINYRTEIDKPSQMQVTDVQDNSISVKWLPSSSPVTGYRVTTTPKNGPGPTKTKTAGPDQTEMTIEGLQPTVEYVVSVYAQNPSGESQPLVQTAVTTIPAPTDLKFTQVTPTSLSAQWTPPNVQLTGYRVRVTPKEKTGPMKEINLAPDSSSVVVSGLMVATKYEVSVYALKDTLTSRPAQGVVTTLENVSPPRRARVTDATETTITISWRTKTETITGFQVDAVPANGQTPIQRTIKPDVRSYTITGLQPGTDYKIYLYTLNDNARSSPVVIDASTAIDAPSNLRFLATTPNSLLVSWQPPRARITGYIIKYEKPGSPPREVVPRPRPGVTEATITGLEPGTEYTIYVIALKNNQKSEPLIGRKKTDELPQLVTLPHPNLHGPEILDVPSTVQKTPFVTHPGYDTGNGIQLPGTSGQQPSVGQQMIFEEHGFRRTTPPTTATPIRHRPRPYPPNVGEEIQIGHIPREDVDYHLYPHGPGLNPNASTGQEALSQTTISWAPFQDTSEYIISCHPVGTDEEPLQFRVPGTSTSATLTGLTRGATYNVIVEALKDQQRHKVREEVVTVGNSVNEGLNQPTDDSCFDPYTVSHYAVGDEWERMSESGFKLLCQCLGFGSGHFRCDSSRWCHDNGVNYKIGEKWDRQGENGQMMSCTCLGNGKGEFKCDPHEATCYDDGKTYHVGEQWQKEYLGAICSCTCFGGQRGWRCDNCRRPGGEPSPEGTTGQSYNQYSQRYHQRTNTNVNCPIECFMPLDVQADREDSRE

B1: recombinant NPDH (His10-NPDH-B), amino acids 1-244 of Mycoplasma pneumoniae pyruvate dehydrogenase E1 beta subunit (other)
chain: MSKTIQANNIEALGNAMDLALERDPNVVLYGQDAGFEGGVFRATKGLQKKYGEERVWDCPIAEAAMAGIGVGAAIGGLKPIVEIQFSGFSFPAMFQIFTHAARIRNRSRGVYTCPIIVRMPMGGGIKALEHHSETLEAIYGQIAGLKTVMPSNPYDTKGLFLAAVESPDPVVFFEPKKLYRAFRQEIPADYYTVPIGQANLISQGNNLTIVSYGPTMFDLINMVYGGELKDKGIELIDLRTISP
Kd: 0.075 µg/mL
